Values quoted from earlier work in US12599654B2, “Immunogenic peptide fragments of metalloprotease ADAMTS-7 and uses thereof in anti-atherosclerosis and related diseases” (BEIJING KIMWAY BIOTECH CO. LTD, priority 2019, dated 2026).

Biological target: T1, proprotein convertase subtilisin/kexin type 9 (PCSK9) (Homo sapiens, UniProt Q8NBP7)
T1 construct: host or cells: human trial subjects (endogenous circulating PCSK9)
Details: low-dose, phase I clinical trials; cited from earlier work

REGN727: monoclonal antibody against the proprotein convertase subtilisin/kexin type 9 (PCSK9)
reduction of LDL level of subjects: more than 30%
